Test results reported in US20090142372A1.

Tests used:
[1] = target: eBSP tumor epitope fused to a bacterial carrier protein, anchored on carrier bacteria (human; Listeria monocytogenes); experiment: flow cytometry of carrier bacteria displaying the eBSP-carrier fusion (FIG. 7B)
[2] = target: vBSP-3 anchored on carrier bacteria (human; Listeria monocytogenes) (UniProt P21815); experiment: flow cytometry of deactivated carrier bacteria displaying vBSP-3, grown in minimal medium (FIG. 5B)
[3] = target: fusion peptide of pIUSind-mBSP3x anchored on Listeria (human; Listeria monocytogenes) (UniProt Q723K6); experiment: flow cytometry of deactivated carrier bacteria displaying the 3-fold multimer (FIG. 11; rabbit tumor eBSP antiserum)
[4] = target: fusion peptide of pIUSind-mBSP4x anchored on Listeria (human; Listeria monocytogenes) (UniProt Q723K6); experiment: flow cytometry of deactivated carrier bacteria displaying the 4-fold multimer (FIG. 11; rabbit tumor eBSP antiserum)
[5] = target: fusion peptide of pIUSind-mBSP5x anchored on Listeria (human; Listeria monocytogenes); experiment: flow cytometry of deactivated carrier bacteria displaying the 5-fold multimer (FIG. 11; rabbit tumor eBSP antiserum)
[6] = target: fusion peptide of pIUSind-mBSP6x anchored on Listeria (human; Listeria monocytogenes); experiment: flow cytometry of deactivated carrier bacteria displaying the 6-fold multimer (FIG. 11; rabbit tumor eBSP antiserum)
[7] = target: vBSP-2 anchored on carrier bacteria (human; Listeria monocytogenes) (UniProt P21815); experiment: flow cytometry of carrier bacteria displaying vBSP-2, after deactivation
[8] = target: vBSP-3 anchored on carrier bacteria (human; Listeria monocytogenes) (UniProt P21815); experiment: flow cytometry of carrier bacteria displaying vBSP-3, after deactivation
[9] = target: vBSP-4 anchored on carrier bacteria (human; Listeria monocytogenes) (UniProt P21815); experiment: flow cytometry of carrier bacteria displaying vBSP-4, after deactivation
[10] = target: vBSP-2 anchored on carrier bacteria (human; Listeria monocytogenes) (UniProt P21815); experiment: flow cytometry of carrier bacteria displaying vBSP-2, before deactivation
[11] = target: vBSP-3 anchored on carrier bacteria (human; Listeria monocytogenes) (UniProt P21815); experiment: flow cytometry of carrier bacteria displaying vBSP-3, before deactivation
[12] = target: vBSP-4 anchored on carrier bacteria (human; Listeria monocytogenes) (UniProt P21815); experiment: flow cytometry of carrier bacteria displaying vBSP-4, before deactivation
[13] = target: vBSP-3 anchored on carrier bacteria (human; Listeria monocytogenes) (UniProt P21815); experiment: flow cytometry of carrier bacteria displaying vBSP-3, grown in BHI and minimal media, before deactivation (FIG. 4A and B)
[14] = target: fusion peptide of pIUSind-mBSP5x anchored on Listeria (human; Listeria monocytogenes); experiment: flow cytometry of carrier bacteria displaying the eBSP 5-fold multimer, after deactivation
[15] = target: fusion peptide of pIUSind-mBSP6x anchored on Listeria (human; Listeria monocytogenes); experiment: flow cytometry of carrier bacteria displaying the eBSP 6-fold multimer, after deactivation
[16] = target: fusion peptide of pIUSind-mBSP5x anchored on Listeria (human; Listeria monocytogenes); experiment: flow cytometry of carrier bacteria displaying the eBSP 5-fold multimer, before deactivation
[17] = target: fusion peptide of pIUSind-mBSP6x anchored on Listeria (human; Listeria monocytogenes); experiment: flow cytometry of carrier bacteria displaying the eBSP 6-fold multimer, before deactivation
[18] = target: fusion peptide of pIUSind-mBSP1x anchored on Listeria (human; Listeria monocytogenes) (UniProt Q723K6); experiment: flow cytometry of carrier bacteria displaying eBSP monomer, BHI and minimal medium (FIG. 9, 10; tumor-epitope specific rabbit antibodies)
[19] = target: fusion peptide of pIUSind-mBSP5x anchored on Listeria (human; Listeria monocytogenes); experiment: flow cytometry of carrier bacteria displaying eBSP pentamer, BHI and minimal medium (FIG. 9, 10; tumor-epitope specific rabbit antibodies)

Work on “Anti-Human Bone Sialoprotein (amino acids 108-122) Antibody, polyclonal antiserum, Immundiagnostik AG, Cat.-No. A4219.2, Lot H3150503” yielded an anchoring efficiency (proportion of positive bacteria in FACS) [1] of 6 to 7%, an anchoring efficiency (proportion of positive bacteria in FACS) [2] of 41% and an anchoring efficiency (proportion of positive bacteria in FACS) [3] of over 40%. It also gave an anchoring efficiency (proportion of positive bacteria in FACS) [4] of over 40%, an anchoring efficiency (proportion of positive bacteria in FACS) [5] of over 40% and an anchoring efficiency (proportion of positive bacteria in FACS) [6] of over 40%. For the same substance, the anchoring efficiency (proportion of positive bacteria in FACS) [7] was 65%, the anchoring efficiency (proportion of positive bacteria in FACS) [8] was 63.9% and the anchoring efficiency (proportion of positive bacteria in FACS) [9] was 67.8%. The anchoring efficiency (proportion of positive bacteria in FACS) [10] was 58.4%, the anchoring efficiency (proportion of positive bacteria in FACS) [11] was 52.3% and the anchoring efficiency (proportion of positive bacteria in FACS) [12] was 57.8%. For the same substance, the anchoring efficiency (proportion of positive bacteria in FACS) [13] was over 52%, the anchoring efficiency (proportion of positive bacteria in FACS) [14] was 40.1% and the anchoring efficiency (proportion of positive bacteria in FACS) [15] was 46.5%. The anchoring efficiency (proportion of positive bacteria in FACS) [16] was 42.5%, the anchoring efficiency (proportion of positive bacteria in FACS) [17] was 34.2% and the anchoring efficiency (proportion of positive bacteria in FACS) [18] was under 10%. It also gave an anchoring efficiency (proportion of positive bacteria in FACS) [19] of over 40%.
